Results reported in article PMC10900206.

Molecular target: Fhb7
Assay: crystal structure

For Fhb7 (enzyme), which stoichiometry N is on record?
Its stoichiometry N is 2.
